Measurements published in publication PMC10306287, “Computational design of the temperature optimum of an enzyme reaction” (Science Advances, 2023).

Columns and labels:
AHA (WT AHA α-amylase) = target: T1, AHA (WT AHA α-amylase) (Pseudoalteromonas haloplanktis, UniProt P29957); assay: steady-state hydrolysis, 96-well spectrophotometer, nonlinear regression; type: biochemical; settings: 25 °C, PBS, 60 nM enzyme
T1 construct: gene amy; mature peptide residues 25-477, signal peptide excluded, codon-optimised in pET-22b(+), E. coli NiCo21(DE3), HisTrap purified (tag not described)

[1] = substrate: O=[N+]([O-])c1ccc(O[C@H]2O[C@H](CO)[C@@H](O[C@H]3O[C@H](CO)[C@@H](O[C@H]4O[C@H](CO)[C@@H](O)[C@H](O)[C@H]4O)[C@H](O)[C@H]3O)[C@H](O)[C@H]2O)c(Cl)c1; assay: as above; type: biochemical, Pseudoalteromonas haloplanktis; settings: 25 °C, PBS, 60 nM enzyme

Molecule	Km (AHA (WT AHA α-amylase)) [µM]	Km [1] [µM]	kcat [1] [s⁻¹]
O=[N+]([O-])c1ccc(O[C@H]2O[C@H](CO)[C@@H](O[C@H]3O[C@H](CO)[C@@H](O[C@H]4O[C@H](CO)[C@@H](O)[C@H](O)[C@H]4O)[C@H](O)[C@H]3O)[C@H](O)[C@H]2O)c(Cl)c1 [2-chloro-4-nitrophenyl-α-D-maltotrioside]	2240 ± 220		
AHA (WT AHA α-amylase) (Pseudoalteromonas haloplanktis) (protein, mature peptide residues 25-477, signal peptide excluded, codon-optimised in pET-22b(+), E. coli NiCo21(DE3), HisTrap purified (tag not described)) TPTTFVHLFEWNWQDVAQECEQYLGPKGYAAVQVSPPNEHITGSQWWTRYQPVSYELQSRGGNRAQFIDMVNRCSAAGVDIYVDTLINHMAAGSGTGTAGNSFGNKSFPIYSPQDFHESCTINNSDYGNDRYRVQNCELVGLADLDTASNYVQNTIAAYINDLQAIGVKGFRFDASKHVAASDIQSLMAKVNGSPVVFQEVIDQGGEAVGASEYLSTGLVTEFKYSTELGNTFRNGSLAWLSNFGEGWGFMPSSSAVVFVDNHDNQRGHGGAGNVITFEDGRLYDLANVFMLAYPYGYPKVMSSYDFHGDTDAGGPNVPVHNNGNLECFASNWKCEHRWSYIAGGVDFRNNTADNWAVTNWWDNTNNQISFGRGSSGHMAINKEDSTLTATVQTDMASGQYCNVLKGELSADAKSCSGEVITVNSDGTINLNIGAWDAMAIHKNAKLNTSSAS		2810 ± 110	1.775 ± 0.11
